Assay results: patent US20160319032A1 (MEDLMMUNE, published 2016)
Numbering of substitutions follows the chain as printed.

B1: sc 58 (antibody, V domains shown)
VH: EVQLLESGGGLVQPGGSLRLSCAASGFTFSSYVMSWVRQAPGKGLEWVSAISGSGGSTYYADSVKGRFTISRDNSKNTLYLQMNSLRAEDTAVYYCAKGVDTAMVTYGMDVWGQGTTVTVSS
VL: SYELTQPPSVSVSPGQTARITCSGDALPKKYAYWYQQKSGQAPVLVIYDDSKRPSGIPERFSGSSSGTMATLTISGAQVEDEADYYCYSTDSSGNHRVFGGGTKLTVL
notes: lambda light chain; also called sc 058
B2: sc 320 (antibody, V domains shown)
VH: EVQLVESGGGLVKPGGSLRLSCAASGYTFTNYIMHWVRQAPGKGLEWVSSISISSSYIYYADSVKGRFTISRDNAKNSLYLQMNSLRAEDTAVYYCARDPVPLERRDYYYGMDVWGQGTTVTVSS
VL: QSVLTQPPSMSAAPGQKVTISCSGSSSNIGNNYVSWYQQLPGTAPKLLIYDNNKRPSGIPDRFSGSKSGTSATLGITGLQTGDEADYYCGTWDSSLSAGVFGGGTKLTVL
notes: lambda light chain
B3: sc 277 (antibody, V domains shown)
VH: EVQLVQSGAEVKKPGESLKISCKGSGYSFPSYWIGWVRQMPGKGLEWMGIIYPGDSDTRYSPSFQGQVTISADKSISTAYLQWSSLKASDTAMYYCARHPMEDGMDVWGQGTTVTVSS
VL: SYELTQPPSVSVSPGQTARITCSGDALPKKYAFWYQQKSGQAPVLVIYDDNKRPSGIPERFSGSSSGTMATLTITGAQVEDEADYYCYSTDSSGHHVFGGGTKLTVL
notes: lambda light chain
B4: sc 254 (antibody, V domains shown)
VH: QVQLQESGPGLVKPSQTLSLTCTVSGGSISSGGYYWSWIRQHPGKGLEWIGYIYYSGSTYYNPSLKSRVTISVDTSKNQFSLKLSSVTAADTAMYYCARYRGPAAGRGDFYYFGMDVWGQGTTVTVSS
VL: DIVMTQTPLSLSVTPGQPASIFCKSSQSLLNSDGKTYLCWYLQKPGQPPQLLIYEVSNRFSGVPDRFSGSGSGTDFTLKISRVEAEDVGVYYCMQGIQLPWAFFGQGTKVEIK
notes: kappa light chain
B5: sc 161 (antibody, V domains shown)
VH: EVQLVQSGAEVKKPGESLKISCKGSGYSFTSYWIGWVRQMPGKGLEWMGIIYPGDSDTRYSPSFQGQVTISADKSISTAYLQWSSLKASDTAMYYCARHGIAAAGFYYYYMDVWGQGTTVTVSS
VL: EIVLTQSPDTLSLSPGERASLSCRASQNVNRNYLVWYQQKPGQAPRLLIYGTSNRATGIPDRFSGSGSGTDFTLTISRLEPEDFAVYYCQQCGSLPFTFGPGTKVDIKR
notes: kappa light chain
B6: sc 97 (antibody, V domains shown)
VH: EVQLVQSGAEVKKPGESLKISCKGSGYSFTSYWIGWVRQMPGKGLEWMGIIYPGDSDTRYSPSFQGQVILSADKSISTAYLQWSSLKASDTAMYYCARHDESSGYYYVFDIWGQGTMVTVSS
VL: SYELTQPPSVSVSPGQTARITCSGDALPKKYAYWYQQKSGQAPVLVIYEDIKRPSGIPERFSGSSSGTMATLTISGAQVEDEADYYCYSTDSSGNHWVFFGGGTKLTVL
notes: lambda light chain; also called sc 097
B7: sc 188 (antibody, V domains shown)
VH: QVQLQESGPGLVKPSQTLSLTCTVSGGSISSGVYYWTWIRQHPGNGLEWIGYIYYSGSTSYNPSLKSRVTISVDTSKKQFSLNLTSVTAADTAVYYCAREGPLRGDYYYGLDVWGQGTTVTVSS
VL: EIVLTQSPGTLSLSPGERATLSCRAGQTISSRYLAWYQQKPGQAPRPLIYGASSRATGIPDRFSGSGSGTDFTLTISRLEPEDFAVYYCQQYGSSPRTFGQGTKVEIK
notes: kappa light chain
B8: sc 264 RAD (antibody, V domains shown)
VH: QVQLQESGPGLVKPSQTLSLTCTVSGGSISSGGYYWSWIRQHPGKGLEWIGYIYYSGRTYNNPSLKSRVTISVDTSKNQFSLKLSSVTAADTAVYYCARVATGRADYHFYAMDVWGQGTTVTVSS
VL: SYELTQPSSVSVSPGQTARITCSGDVLAKKSARWFHQKPGQAPVLVIYKDSERPSGIPERFSGSSSGTTVTLTISGAQVEDEAAYYCYSAADNNLVFGGGTKLTVL
B9: sc 188 SDM (antibody, V domains shown)
VH: B7 VH with N83K
VL: B7 VL
B10: sc 49 (antibody, V domains shown)
VH: QVQLQESGPGLVKPSQTLSLTCTVAGGSIRSGDYYWSWIRQHPGKGLEWIGNIYYSGSTYYNPSLKSRITISVATSRNQFSLKLTSVTAADTAVYYCARGGAITIFGVFDYWGQGTLVTVSS
VL: not shown
notes: kappa light chain; also called sc 049

Target: T1, α4β1 integrin on J6.77 cells (UniProt P13612 34-1032; P05556 21-798)
Assay: cell-based or functional assay

| Percent Inhibition of J6.77 adhesion to CS-1 peptide, 5 ug/ml [%] | Binder |
| --- | --- |
| -14 | B1 |
| -8 | B2 |
| -17 | B3 |
| 0 | B4 |
| 12 | B5 |
| -7 | B6 |
| -10 | B7 |

Target: T2, human αVβ6 integrin on cells (human, UniProt P06756 31-1048; P18564 22-788)
Assay: cell-based or functional assay

T2 sequence (P06756 31-1048, chain 1 of 2): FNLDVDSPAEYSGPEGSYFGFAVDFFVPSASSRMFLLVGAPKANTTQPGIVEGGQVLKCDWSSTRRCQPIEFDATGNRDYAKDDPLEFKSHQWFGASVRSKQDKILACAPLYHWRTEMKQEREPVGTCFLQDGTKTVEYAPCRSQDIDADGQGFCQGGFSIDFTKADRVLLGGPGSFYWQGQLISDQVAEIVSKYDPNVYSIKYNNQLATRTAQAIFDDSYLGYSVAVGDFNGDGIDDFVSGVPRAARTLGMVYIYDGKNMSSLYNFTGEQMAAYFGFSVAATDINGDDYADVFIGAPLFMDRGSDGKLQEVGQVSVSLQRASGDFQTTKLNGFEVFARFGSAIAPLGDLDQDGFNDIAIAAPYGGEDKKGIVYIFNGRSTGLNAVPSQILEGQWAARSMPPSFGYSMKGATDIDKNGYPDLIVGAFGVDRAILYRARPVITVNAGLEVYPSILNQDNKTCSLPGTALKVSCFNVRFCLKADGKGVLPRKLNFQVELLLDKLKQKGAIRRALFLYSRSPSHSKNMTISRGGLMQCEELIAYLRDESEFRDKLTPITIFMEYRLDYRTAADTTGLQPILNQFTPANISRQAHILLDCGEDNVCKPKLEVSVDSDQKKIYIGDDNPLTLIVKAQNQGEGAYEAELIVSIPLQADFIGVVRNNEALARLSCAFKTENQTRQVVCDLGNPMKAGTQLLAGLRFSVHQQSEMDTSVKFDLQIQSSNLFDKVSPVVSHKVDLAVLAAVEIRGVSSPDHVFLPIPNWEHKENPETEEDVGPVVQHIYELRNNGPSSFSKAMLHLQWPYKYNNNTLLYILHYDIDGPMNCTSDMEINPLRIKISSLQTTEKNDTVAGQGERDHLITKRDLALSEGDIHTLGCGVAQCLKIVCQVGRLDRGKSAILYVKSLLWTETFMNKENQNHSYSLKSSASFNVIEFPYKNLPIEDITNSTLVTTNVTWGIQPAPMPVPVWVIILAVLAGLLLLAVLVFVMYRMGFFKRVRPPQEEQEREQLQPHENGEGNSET
T2 sequence (P18564 22-788, chain 2 of 2): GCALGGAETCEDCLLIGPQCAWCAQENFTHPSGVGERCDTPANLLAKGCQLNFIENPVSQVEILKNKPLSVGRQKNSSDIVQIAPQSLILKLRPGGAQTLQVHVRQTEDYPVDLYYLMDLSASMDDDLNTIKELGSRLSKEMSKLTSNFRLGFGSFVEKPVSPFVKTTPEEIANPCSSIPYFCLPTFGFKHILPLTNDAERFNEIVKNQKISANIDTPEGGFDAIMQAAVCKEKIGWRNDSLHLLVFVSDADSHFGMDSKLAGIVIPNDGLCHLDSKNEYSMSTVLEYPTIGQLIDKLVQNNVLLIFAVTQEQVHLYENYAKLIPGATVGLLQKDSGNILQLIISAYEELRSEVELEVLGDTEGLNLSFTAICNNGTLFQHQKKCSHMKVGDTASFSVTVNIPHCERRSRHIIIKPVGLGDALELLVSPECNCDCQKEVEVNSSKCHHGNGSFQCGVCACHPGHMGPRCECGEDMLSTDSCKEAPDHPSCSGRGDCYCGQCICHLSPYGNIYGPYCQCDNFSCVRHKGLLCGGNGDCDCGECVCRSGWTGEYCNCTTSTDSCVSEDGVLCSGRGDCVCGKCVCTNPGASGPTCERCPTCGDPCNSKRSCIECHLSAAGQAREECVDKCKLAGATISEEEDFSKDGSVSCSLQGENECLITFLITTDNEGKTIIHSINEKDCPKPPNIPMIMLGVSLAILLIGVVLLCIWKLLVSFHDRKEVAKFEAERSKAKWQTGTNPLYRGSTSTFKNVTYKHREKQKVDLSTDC

| Percent Internalization, 1 ug/ml [%] | Percent Internalization, 10 ug/ml [%] | Binder |
| --- | --- | --- |
| 31 | 42 | B8 |
| 27 | 18 | B7 |
| 17 | 22 | B9 |

Target: T2, human αVβ6 integrin on cells
Assay: cell-based or functional assay
Remark: another data set of the same source

| IC50, adhesion of HT29 cells, n = 1 [µg/mL] | IC50, adhesion of HT29 cells, n = 2 [µg/mL] | IC50, adhesion of HT29 cells, n = 3 [µg/mL] | Binder |
| --- | --- | --- | --- |
| 0.013 | 0.013 | 0.039 | B8 |
| 0.125 | 0.157 | 0.064 | B7 |
| 0.022 | 0.024 | 0.067 | B9 |

Target: T2, human αVβ6 integrin on cells
Assay: cell-based or functional assay
Remark: another data set of the same source

| Percent Internalization, 1 ug/mL [%] | Percent Internalization, 10 ug/mL [%] | Binder |
| --- | --- | --- |
| 39 | 49 | B4 |
| 34 | 38 | B7 |

Target: T1, α4β1 integrin on J6.77 cells
Assay: cell-based or functional assay
Remark: another data set of the same source

| Percent Inhibition of J6.77 adhesion to CS-1 peptide, 5 ug/ml [%] | Binder |
| --- | --- |
| -2 | B8 |
| 2 | B7 |
| -6 | B9 |

Target: T2, human αVβ6 integrin on cells
Assay: cell-based or functional assay
Remark: another data set of the same source

| Assay 1 % Inhibition of adhesion [%] | Assay 2 % Inhibition of adhesion [%] | Average % Inhibition of adhesion [%] | Binder |
| --- | --- | --- | --- |
| 77 | 46 | 62 | B1 |
| 98 | 101 | 100 | B3 |
| 98 | 106 | 102 | B4 |
| 98 | 106 | 102 | B5 |
| 99 | 103 | 101 | B7 |

Target: T3, cynomolgus αVβ6 on cells (cynomolgus)
T3 construct: whole, on cells; also called macaque αVβ6; Mac AVB6
Assay: FACS, supernatant, HEK-293 transfected with cynomolgus αV and β6
Description: HEK-293 cells were transiently transfected with cynomolgus αV and cynomolgus β6. After 48 hours, the cells were collected and resuspended in FACS buffer to reach a final concentration of approximately 50,000 cells in 100 μL.
The cells in the plate were pelleted at 1500 rpm for 3 minutes, and then resuspended in 100 μL FACS buffer. The pelleting step was repeated, and the FACS buffer supernatant was removed. The harvested antibody-containing supernatants, or control primary antibodies were added in a volume of 50 μL and the cells were resuspended. […] The plate was incubated on ice for 45 minutes, after which 100 μL FACS buffer was added to dilute the primary antibody. The cells were then pelleted by centrifuging at 1500 rpm for 3 minutes, and the pellet was resuspended in 100 μL FACS buffer. The pelleting step was repeated, and the FACS buffer supernatant was removed. Cells were then resuspended in the appropriate secondary antibody (5 μg/ml) with 7AAD dye (10 μg/ml), and stained on ice for 7 minutes. Then 150 μL of FACS buffer was added and the cells were pelleted at 1500 rpm for 3 minutes, after which the cells were washed in 100 μL FACS buffer, pelleted, and then resuspended in 250 μL buffer and added to FACS tubes. Samples were analyzed on a high throughput FACS machine and analyzed using Cell Quest Pro software.

| % Cells Shifted [%] | GeoMean | Binder |
| --- | --- | --- |
| 25 | 22.8 | B1 |
| 19 | 33.5 | B2 |
| 23 | 30.2 | B10 |
| 35 | 37 | B6 |

Target: T2, human αVβ6 integrin on cells
Assay: cell-based or functional assay
Remark: another data set of the same source

| Estimated IC50, adhesion assay, n = 1 [µg/mL] | Estimated IC50, adhesion assay, n = 2 [µg/mL] | Estimated IC50, adhesion assay, n = 3 [µg/mL] | Binder |
| --- | --- | --- | --- |
| 4.07 | 2.03 | 3.26 | B1 |
| 1.46 | 0.54 | 0.72 | B3 |
| 0.063 | 0.037 | 0.037 | B4 |
| 2.41 | 0.137 |  | B5 |
| 0.041 | 0.026 |  | B7 |

Target: T4, α5β1 integrin on K562 cells (UniProt P08648 42-1049; P05556 21-798)
Assay: cell-based or functional assay

T4 sequence (P08648 42-1049, chain 1 of 2): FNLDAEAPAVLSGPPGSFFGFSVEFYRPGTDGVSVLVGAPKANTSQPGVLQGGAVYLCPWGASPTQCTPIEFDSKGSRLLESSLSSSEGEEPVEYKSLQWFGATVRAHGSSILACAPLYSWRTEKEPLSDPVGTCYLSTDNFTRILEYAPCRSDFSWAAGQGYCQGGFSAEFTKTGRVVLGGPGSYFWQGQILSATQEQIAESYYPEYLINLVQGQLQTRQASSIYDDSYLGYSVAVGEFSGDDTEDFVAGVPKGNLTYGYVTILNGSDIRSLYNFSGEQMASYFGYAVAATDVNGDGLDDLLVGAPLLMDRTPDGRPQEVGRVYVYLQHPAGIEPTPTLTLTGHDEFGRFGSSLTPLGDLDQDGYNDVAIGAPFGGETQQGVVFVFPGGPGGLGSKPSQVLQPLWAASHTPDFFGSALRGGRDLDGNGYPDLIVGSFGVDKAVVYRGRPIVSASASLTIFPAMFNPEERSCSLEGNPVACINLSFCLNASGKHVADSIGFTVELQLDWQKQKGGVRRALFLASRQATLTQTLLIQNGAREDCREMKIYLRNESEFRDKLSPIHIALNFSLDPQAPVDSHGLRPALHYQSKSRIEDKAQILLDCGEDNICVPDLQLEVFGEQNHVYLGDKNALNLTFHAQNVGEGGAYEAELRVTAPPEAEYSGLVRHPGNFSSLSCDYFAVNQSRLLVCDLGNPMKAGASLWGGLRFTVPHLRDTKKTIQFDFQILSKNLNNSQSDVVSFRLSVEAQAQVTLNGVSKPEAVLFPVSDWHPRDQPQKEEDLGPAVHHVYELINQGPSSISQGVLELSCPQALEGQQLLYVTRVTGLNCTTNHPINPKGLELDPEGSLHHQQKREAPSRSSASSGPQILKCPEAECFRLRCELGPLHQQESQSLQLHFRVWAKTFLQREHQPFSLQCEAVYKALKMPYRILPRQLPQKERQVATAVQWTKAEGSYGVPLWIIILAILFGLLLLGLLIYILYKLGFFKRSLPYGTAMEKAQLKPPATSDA
T4 sequence (P05556 21-798, chain 2 of 2): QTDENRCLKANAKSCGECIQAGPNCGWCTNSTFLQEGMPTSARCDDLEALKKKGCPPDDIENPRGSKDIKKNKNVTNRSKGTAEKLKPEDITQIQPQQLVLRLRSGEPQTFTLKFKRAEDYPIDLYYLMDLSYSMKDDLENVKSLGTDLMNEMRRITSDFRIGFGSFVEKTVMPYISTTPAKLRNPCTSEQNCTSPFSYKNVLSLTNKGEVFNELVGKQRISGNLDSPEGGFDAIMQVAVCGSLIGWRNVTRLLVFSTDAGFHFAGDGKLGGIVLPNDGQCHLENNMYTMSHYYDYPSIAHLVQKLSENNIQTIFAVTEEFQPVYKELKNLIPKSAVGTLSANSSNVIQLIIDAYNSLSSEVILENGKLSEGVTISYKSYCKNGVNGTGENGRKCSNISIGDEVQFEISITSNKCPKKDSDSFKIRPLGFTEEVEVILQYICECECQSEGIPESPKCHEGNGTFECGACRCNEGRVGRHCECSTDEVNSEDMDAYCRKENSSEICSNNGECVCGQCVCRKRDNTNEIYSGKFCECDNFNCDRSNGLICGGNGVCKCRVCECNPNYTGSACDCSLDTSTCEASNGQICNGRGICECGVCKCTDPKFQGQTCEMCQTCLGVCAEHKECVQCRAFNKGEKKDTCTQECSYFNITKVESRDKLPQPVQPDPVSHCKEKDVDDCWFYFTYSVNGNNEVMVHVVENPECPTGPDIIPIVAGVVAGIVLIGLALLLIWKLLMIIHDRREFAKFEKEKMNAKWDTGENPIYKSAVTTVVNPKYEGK

| Percent Inhibition of K562 adhesion to FN9-10, 5 ug/ml [%] | Binder |
| --- | --- |
| -9 | B4 |
| 5 | B7 |

Target: T2, human αVβ6 integrin on cells
Assay: FMAT, supernatant, HEK 293 cells stably overexpressing αVβ6
Description: Cells in Freestyle media (Invitrogen) were seeded into 384-well FMAT plates in a volume of 50 μL/well at a density of 2500 cells/well for the stable transfectants, and at a density of 22,500 cells/well for the parental cells, and cells were incubated overnight at 37° C. […] Plates were then incubated for one hour at 4° C., and fluorescence was read using an FMAT macroconfocal scanner (Applied Biosystems).

| FMAT FL1XCount | Binder |
| --- | --- |
| 10700 | B3 |
| 1.6e+06 | B4 |
| 16700 | B5 |
| 79800 | B7 |

Target: T4, α5β1 integrin on K562 cells
Assay: cell-based or functional assay
Remark: another data set of the same source

| % Inhibition of K562 adhesion to fibronectin [%] | Binder |
| --- | --- |
| 6 | B8 |
| -5 | B7 |
| -8 | B9 |
